Data as given in publication PMC11055835, “Small animal PET imaging with the ^68Ga-labeled pH (low) insertion peptide-like peptide YJL-4 in a triple-negative breast cancer mouse model” (EJNMMI Radiopharmacy and Chemistry, 2024).
Where two headings read alike, the source gives them in different places. Peptide text beside a SMILES is read from it. * marks the point of attachment. X1 = O=C(O)CN1CCN(CC(=O)O)CC(Cc2ccc(NC(=S)*)cc2)N(CC(=O)O)CC1; NOTA = O=C(O)CN1CCN(CC(=O)O)CCN(CC(=O)*)CC1; Ahx = NCCCCCC(=O)O

Columns and labels:
[1] = Serum stability in human serum; assay type: in vitro ADME
Procedure: (§1) Two hundred microliters of each ^68Ga-labeled peptide (18.5 MBq) was mixed with 1.0 mL of fresh human serum (or mouse serum) and incubated at 37 °C, and the radiochemical purity was detected at 30, 60, 120, and 240 min after mixing.

[2] = Serum stability in mouse serum; assay type: in vitro ADME
Procedure: as §1

In vivo biodistribution = assay: In vivo biodistribution; parameters: species or system BALB/c nude mice; details: female, BALB/c nude, mouse, iv, 1.85 MBq/200 uL, total radioactivity
Text: Twenty-four four- to five-week-old female specific pathogen-free (SPF) BALB/c nude mice (Hangzhou Ziyuan Experimental Animal Technology Co., Ltd., China, license number: […] The animal studies were approved by the ethics committee of Qingdao University, and the management of the animals adhered to the animal ethics standards. Eighteen tumor-bearing nude mice were selected for in vivo biodistribution experiments when the tumor diameter reached 0.8–1.0 cm. Mice were randomly divided into two groups: a YJL-4 group and a control group with 9 mice per group; each group had three time points. […] The mice were humanely sacrificed 1 h, 2 h, or 4 h after injection. The brain, heart, lungs, liver, kidneys, stomach, small intestine, blood, muscles, bones, and tumor were collected and weighed, and the radioactivity was measured. The biodistribution results are expressed as the percent of the injected dose per gram of tissue (% ID/g).

[3] = tested on: MDA-MB-231 tumor-bearing nude mice; assay: Small animal PET imaging; assay type: in vivo, BALB/c nude mice; details: 2 and 4 h after injection, approx. 7.4 MBq/200 μL via tail vein, static 10-min PET, n = 3
Procedure: Human breast cancer cells (MDA-MB-231 cells from the Cell Bank of the Chinese Academy of Sciences) were cultured in high-glucose DMEM supplemented with 10% fetal bovine serum and 1% double antibiotic mixture (penicillin‒streptomycin mixture) at 37 °C in 5% CO2. Twenty-four four- to five-week-old female specific pathogen-free (SPF) BALB/c nude mice (Hangzhou Ziyuan Experimental Animal Technology Co., Ltd., China, license number: SCXK(Zhe) 2019–0004) were used to establish the MDA-MB-231 tumor model by subcutaneously inoculating 0.1 mL of cell suspension (50 µL of PBS + 50 µL of Matrigel) containing 1 × 10^6 MDA-MB-231 cells at the base of the right forelimb of each mouse. The animal studies were approved by the ethics committee of Qingdao University, and the management of the animals adhered to the animal ethics standards.
Six tumor-bearing nude mice were selected for imaging when the tumor diameter reached 0.8–1.0 cm. Mice were randomly divided into two groups: a YJL-4 group and a control group, with 3 mice per group; each group had two time points. Each tumor-bearing nude mouse was injected with approximately 7.4 MBq/200 μL of ^68Ga-YJL-4 or ^68Ga-kVar7 through the tail vein, and the mice were anesthetized with 2% isoflurane at 2 and 4 h after injection and imaged using static 10-min PET and moderate-resolution whole-body CT. […]

Serum protein binding = assay type: in vitro ADME, mouse
Procedure: The resulting mixture was vortexed for 1 min and centrifuged (13,000 rpm) for 5 min. The supernatant was transferred to a 1.7 ml Eppendorf tube and then further centrifuged at 13,000 rpm for 2 min. The supernatant and sediment were collected separately, and the radioactivity was measured with a gamma counter to determine the serum protein binding of the radiotracer.

With `CC(C)C[C@H](NC(=O)[C@H](CC(=O)O)NC(=O)[C@H](CC(C)C)NC(=O)[C@H](CC(C)C)NC(=O)[C@H](CC(C)C)NC(=O)[C@@H](NC(=O)[C@H](CC(=O)O)NC(=O)[C@@H](NC(=O)[C@@H]1CCCN1C(=O)[C@H](Cc1ccccc1)NC(=O)[C@H](CC(C)C)NC(=O)[C@H](CC(C)C)NC(=O)[C@H](CC(=O)O)NC(=O)[C@H](C)NC(=O)[C@H](Cc1ccc(O)cc1)NC(=O)[C@H](CCCNC(=N)N)NC(=O)[C@H](C)NC(=O)[C@H](Cc1c[nH]c2ccccc12)NC(=O)[C@@H]1CCCN1C(=O)[C@H](CC(N)=O)NC(=O)[C@H](CCC(N)=O)NC(=O)[C@H](CC(=O)O)NC(=O)[C@H](CC(=O)O)NC(=O)[C@H](CS)NC(=O)[C@H](C)NC(=O)CCCCCNC(=S)Nc1ccc(CC2CN(CC(=O)O)CCN(CC(=O)O)CCN2CC(=O)O)cc1)[C@@H](C)O)[C@@H](C)O)C(N)=O` (stereo partly drawn) [^68Ga-YJL-4, metal not drawn] ({X1-Ahx}-ACDDQNPWARYADLLFPTDTLLLDL-NH2) the “Radiochemical purity after incubation in human serum” value [1] was ~95%, the “Radiochemical purity after incubation in mouse serum” value [2] was ~95% and the tissue uptake at 1 h (In vivo biodistribution; Biodistribution in tumors) was 5.94 ± 1.27 %ID/g. The tissue uptake at 2 h (In vivo biodistribution; Biodistribution in tumors) was 6.72 ± 1.69 %ID/g, the tissue uptake at 4 h (In vivo biodistribution; Biodistribution in tumors) was 4.54 ± 0.58 %ID/g and the tissue uptake at 1 h (In vivo biodistribution; Distribution in the blood) was 19.6 ± 3.92 %ID/g. The tissue uptake at 2 h (In vivo biodistribution; Distribution in the blood) was 8.23 ± 3.47 %ID/g, the tissue uptake at 4 h (In vivo biodistribution; Distribution in the blood) was 3.38 ± 1.91 %ID/g and the tissue uptake at 1 h (In vivo biodistribution; Distribution in the liver) was 20.5 ± 3.64 %ID/g. The tissue uptake at 2 h (In vivo biodistribution; Distribution in the liver) was 14.5 ± 3.98 %ID/g, the tissue uptake at 4 h (In vivo biodistribution; Distribution in the liver) was 10.2 ± 2.77 %ID/g and the “Visualization of tumors by PET” value [3] was “clearly visualized”. The fraction unbound at 30 min (Serum protein binding; mouse, serum) was 0.678 and the fraction unbound at 120 min (Serum protein binding; mouse, serum) was 0.685.

In the case of `CC(C)C[C@H](NC(=O)[C@H](CCCCN)NC(=O)[C@H](CC(C)C)NC(=O)[C@H](CC(C)C)NC(=O)[C@H](CC(C)C)NC(=O)[C@@H](NC(=O)[C@H](CCCCN)NC(=O)[C@@H](NC(=O)[C@@H]1CCCN1C(=O)[C@H](Cc1ccccc1)NC(=O)[C@H](CC(C)C)NC(=O)[C@H](Cc1c[nH]c2ccccc12)NC(=O)[C@H](CCCCN)NC(=O)[C@H](CC(C)C)NC(=O)[C@H](Cc1ccc(O)cc1)NC(=O)[C@H](CCCNC(=N)N)NC(=O)[C@H](C)NC(=O)[C@H](Cc1c[nH]c2ccccc12)NC(=O)[C@@H]1CCCN1C(=O)[C@H](CC(N)=O)NC(=O)[C@H](CCC(N)=O)NC(=O)[C@H](CCC(=O)O)NC(=O)[C@H](CCC(=O)O)NC(=O)[C@H](CS)NC(=O)[C@H](C)NC(=O)CN1CCN(CC(=O)O)CCN(CC(=O)O)CC1)[C@@H](C)O)[C@@H](C)O)C(N)=O` [^68Ga-kVar7, metal not drawn, reference compound] ({NOTA}-ACEEQNPWARYLKWLFPTKTLLLKL-NH2; N-terminus assumed), the “Radiochemical purity after incubation in human serum” value ([1]; 200 µL labeled peptide (18.5 MBq) in 1.0 mL fresh human serum, 37 °C, 240 min) is reported as ~95%, the “Radiochemical purity after incubation in mouse serum” value ([2]; 200 µL labeled peptide (18.5 MBq) in 1.0 mL mouse serum, 37 °C, 240 min) is reported as ~95% and the tissue uptake at 1 h (In vivo biodistribution; 1 h after injection, 1.85 MBq/200 μL via tail vein, mean ± SD, n = 3, read-out: Distribution in the blood) is reported as 20.6 ± 4.73 %ID/g. The tissue uptake at 1 h (In vivo biodistribution; 1 h after injection, 1.85 MBq/200 μL via tail vein, mean ± SD, n = 3, read-out: Distribution in the liver) was 21.3 ± 2.93 %ID/g, the tissue uptake at 2 h (In vivo biodistribution; 2 h after injection, 1.85 MBq/200 μL via tail vein, mean ± SD, n = 3, read-out: Distribution in the blood) was 9.88 ± 2.71 %ID/g and the tissue uptake at 2 h (In vivo biodistribution; 2 h after injection, 1.85 MBq/200 μL via tail vein, mean ± SD, n = 3, read-out: Distribution in the liver) was 14.8 ± 3.87 %ID/g. For the same compound, the tissue uptake at 4 h (In vivo biodistribution; 4 h after injection, 1.85 MBq/200 μL via tail vein, mean ± SD, n = 3, read-out: Distribution in the blood) was 3.17 ± 1.6 %ID/g, the tissue uptake at 4 h (In vivo biodistribution; 4 h after injection, 1.85 MBq/200 μL via tail vein, mean ± SD, n = 3, read-out: Distribution in the liver) was 11 ± 2.77 %ID/g and the “Visualization of tumors by PET” value [3] was “not visualized”. The fraction unbound at 30 min (Serum protein binding; mouse serum, 37 °C, 30 min, 0.37 MBq, acetonitrile precipitation, gamma counter, mean ± SD, read-out: Serum protein binding rate (converted)) was 0.723, the “Serum protein binding rate” value (Serum protein binding; mouse serum, 37 °C, 60 min, 0.37 MBq, acetonitrile precipitation, gamma counter, mean ± SD) was 27.89 ± 2.02% and the fraction unbound at 120 min (Serum protein binding; mouse serum, 37 °C, 120 min, 0.37 MBq, acetonitrile precipitation, gamma counter, mean ± SD, read-out: Serum protein binding rate (converted)) was 0.75. For the same compound, the “Serum protein binding rate” value (Serum protein binding; mouse serum, 37 °C, 240 min, 0.37 MBq, acetonitrile precipitation, gamma counter, mean ± SD) was 27.54 ± 0.86%.
